Measured values from US20250011363A1, “OPTIMIZED SHORTENED PEPTIDE THAT BINDS TO ACETYLCHOLINE RECEPTOR, AND USE THEREOF” (SKINMED CO., LTD., priority 2021, published 2025).

What follows are substances tested against acetylcholine receptor (Homo sapiens, UniProt P02708) (assay: SPR binding affinity (RU) of optimized 5mer/6mer/7mer peptides, Examples 6-7). Conditions: 6mer-1 Top sequence; SPR; peptides tested at 10 μM.
Description: Based on the frequencies of occurrence of the top 7 amino acids from Table 7 in Example 5, 600 peptides comprising these amino acids (top combinations) and those comprising the 13 less frequently occurring amino acids (bottom combinations) were synthesized for each series of 5mer, 6mer-1, and 6mer-2. The binding affinity of each sequence for the acetylcholine receptor was measured using Surface Plasmon Resonance (SPR) analysis method. The peptides were tested at a concentration of 10 μM. Additionally, the average binding affinities of the top and bottom combinations in each series are depicted in FIGS. 5-7.
Representative peptides identified in Example 6, two in each library, including 5mers (73, 311) and 6mers-1 (43, 210) and 6mers-2 (136, 233), were compared with the pre-optimized 6mer, 5mer-ND, and Synake.

acetylcholine receptor, sequence (P02708 21-457): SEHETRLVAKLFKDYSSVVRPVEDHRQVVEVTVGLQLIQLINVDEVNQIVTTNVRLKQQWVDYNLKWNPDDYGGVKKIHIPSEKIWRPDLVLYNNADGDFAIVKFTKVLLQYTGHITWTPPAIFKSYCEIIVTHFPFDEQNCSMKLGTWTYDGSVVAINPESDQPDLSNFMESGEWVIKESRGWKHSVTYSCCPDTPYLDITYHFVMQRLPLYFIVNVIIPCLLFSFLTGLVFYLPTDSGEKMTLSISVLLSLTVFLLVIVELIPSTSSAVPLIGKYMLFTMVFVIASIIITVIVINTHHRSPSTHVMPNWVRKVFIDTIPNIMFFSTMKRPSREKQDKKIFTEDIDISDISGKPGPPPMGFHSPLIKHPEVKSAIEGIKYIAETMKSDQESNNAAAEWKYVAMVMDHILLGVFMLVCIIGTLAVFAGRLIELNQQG

First: 6mer-1-401 (RRLYCR)
Second: 6mer-1-253 (RRVQLK)
The Binding affinity of the first is lower: 127 Ru for the first, 145 Ru for the second.

First: 6mer-1-398 (KKQYYR)
Second: 6mer-1-340 (KRLLCK)
The Binding affinity of the first is lower: 137 Ru for the first, 142 Ru for the second.

Going from 6mer-1-284 (KRSRQK) to 6mer-1-217 (KRVLQR), the Binding affinity falls from 145 Ru to 135 Ru.

Going from 6mer-1-249 (RKGVSR) to 6mer-1-343 (KKLYTK), the Binding affinity falls from 142 Ru to 135 Ru.

Same assay, conditions: 6mer-2 Top sequence; SPR; peptides tested at 10 μM

Going from 6mer-2-176 (RWIYRR) to 6mer-2-24 (KGIQRK), the Binding affinity falls from 144 Ru to 141 Ru.

6mer-2-69 (KWFLRK) and 6mer-2-119 (RSISKK) are the same in Binding affinity: 139 Ru for the first, 139 Ru for the second.

Same assay, conditions: SPR, Resonance Units; 5mer Bottom sequence (bottom combinations); peptides tested at 10 μM

5mer-677 (RCEMR) and 5mer-1094 (RYSMK) are the same in Binding affinity: 15 Ru for the first, 15 Ru for the second.

Compared with 5mer-613 (RAEFR), 5mer-799 (KDKPR) is higher in Binding affinity: 20 Ru for the first, 24 Ru for the second.

Going from 5mer-995 (KFTDK) to 5mer-653 (KTTWK), the Binding affinity falls from 18 Ru to 16 Ru.

Compared with 5mer-756 (RCDWR), 5mer-762 (KMPER) is higher in Binding affinity: 18 Ru for the first, 21 Ru for the second.

5mer-635 (RMNGR) and 5mer-941 (KNHHR) are the same in Binding affinity: 21 Ru for the first, 21 Ru for the second.

Compared with 5mer-734 (KATER), 5mer-1018 (KFWAK) is higher in Binding affinity: 16 Ru for the first, 20 Ru for the second.

First: 5mer-901 (KCTNR)
Second: 5mer-691 (KEWEK)
The Binding affinity of the first is higher: 30 Ru for the first, 16 Ru for the second.

Going from 5mer-795 (RTKKR) to 5mer-719 (KISER), the Binding affinity rises from 20 Ru to 21 Ru.

Compared with 5mer-612 (KCTDK), 5mer-791 (KTKMR) is higher in Binding affinity: 23 Ru for the first, 26 Ru for the second.

Going from 5mer-660 (KFDVK) to 5mer-670 (KPCVK), the Binding affinity rises from 11 Ru to 23 Ru.

For 5mer-910 (RPCFR), the Binding affinity was 17 Ru.

Same assay, conditions: SPR, Resonance Units; peptides tested at 10 μM; 6mer-1 Bottom sequence

Going from 6mer-1-1140 (KRATMK) to 6mer-1-1143 (KRHEFK), the Binding affinity falls from 43 Ru to 32 Ru.

First: 6mer-1-1061 (RRISIR)
Second: 6mer-1-1125 (KKPTDR)
The Binding affinity of the first is higher: 41 Ru for the first, 26 Ru for the second.

Compared with 6mer-1-1025 (KRFAKR), 6mer-1-1013 (KKTTNK) is lower in Binding affinity: 33 Ru for the first, 29 Ru for the second.

6mer-1-1115 (RKCAFR) gave a Binding affinity of 43 Ru.

Same assay, conditions: SPR, Resonance Units; peptides tested at 10 μM; 6mer-1 Bottom sequence (Table 11)

First: 6mer-1-683 (KRDSMR)
Second: 6mer-1-628 (RRENEK)
The Binding affinity of the first is lower: 16 Ru for the first, 23 Ru for the second.

Going from 6mer-1-701 (RRKTWR) to 6mer-1-677 (KKCCFR), the Binding affinity rises from 13 Ru to 22 Ru.

Compared with 6mer-1-764 (RRNPFK), 6mer-1-608 (KKACMR) is lower in Binding affinity: 24 Ru for the first, 18 Ru for the second.

For 6mer-1-651 (KRICWK), the Binding affinity was 27 Ru.

Same assay, conditions: SPR, Resonance Units; peptides tested at 10 μM; 6mer-2 Bottom sequence

Compared with 6mer-2-776 (RFPWRK), 6mer-2-798 (RDTPKK) is higher in Binding affinity: 12 Ru for the first, 17 Ru for the second.

Compared with 6mer-2-740 (KIDIRR), 6mer-2-980 (KESGKR) is higher in Binding affinity: 12 Ru for the first, 34 Ru for the second.

First: 6mer-2-716 (RTWKKR)
Second: 6mer-2-937 (RASHRR)
The Binding affinity of the first is lower: 18 Ru for the first, 35 Ru for the second.

Compared with 6mer-2-603 (KFHARR), 6mer-2-882 (RTPAKR) is lower in Binding affinity: 32 Ru for the first, 15 Ru for the second.

Going from 6mer-2-752 (KINWRR) to 6mer-2-606 (RKPFRR), the Binding affinity falls from 29 Ru to 15 Ru.

First: 6mer-2-901 (RYWDRK)
Second: 6mer-2-749 (KMWKRK)
The Binding affinity of the first is higher: 34 Ru for the first, 20 Ru for the second.

Going from 6mer-2-819 (KFSVRR) to 6mer-2-965 (KPWFKR), the Binding affinity rises from 23 Ru to 36 Ru.

First: 6mer-2-872 (KTHFRK)
Second: 6mer-2-992 (RMHFRR)
The Binding affinity of the first is lower: 28 Ru for the first, 33 Ru for the second.

Going from 6mer-2-932 (RIPWRR) to 6mer-2-723 (KEDMKR), the Binding affinity falls from 35 Ru to 23 Ru.

Same assay, conditions: SPR, Resonance Units; peptides tested at 10 μM; 6mer-2 Top sequence

Going from 6mer-2-556 (RSICKK) to 6mer-2-409 (KRRRKR), the Binding affinity falls from 148 Ru to 139 Ru.

Compared with 6mer-2-500 (KRICRR), 6mer-2-475 (KRFCRR) is lower in Binding affinity: 146 Ru for the first, 139 Ru for the second.

Going from 6mer-2-562 (RQQRKR) to 6mer-2-540 (KRLTRR), the Binding affinity rises from 136 Ru to 142 Ru.

Compared with 6mer-2-564 (KQVYRK), 6mer-2-545 (KLYCRK) is lower in Binding affinity: 148 Ru for the first, 125 Ru for the second.

Same assay, conditions: SPR, Resonance Units; peptides tested at 10 μM; 6mer-2 Top sequence (Table 12)

First: 6mer-2-211 (RGLSRR)
Second: 6mer-2-363 (KSIYRK)
The Binding affinity of the first is lower: 135 Ru for the first, 147 Ru for the second.

Going from 6mer-2-215 (RLYYRR) to 6mer-2-213 (KSILRR), the Binding affinity rises from 123 Ru to 142 Ru.

First: 6mer-2-355 (RGIRKK)
Second: 6mer-2-283 (KLISKR)
The Binding affinity of the first is lower: 124 Ru for the first, 148 Ru for the second.

First: 6mer-2-402 (KRYSRR)
Second: 6mer-2-241 (KQLTKR)
The Binding affinity of the first is higher: 145 Ru for the first, 135 Ru for the second.

First: 6mer-2-205 (KSFQRK)
Second: 6mer-2-350 (RGQTRK)
The Binding affinity of the first is lower: 147 Ru for the first, 148 Ru for the second.

6mer-2-209 (RLYYRK) gave a Binding affinity of 148 Ru.

Same assay, conditions: SPR, peptides at 10 μM; 6mer-2 Bottom sequence

Compared with 6mer-2-1032 (KETVKR), 6mer-2-1176 (RYTEKK) is higher in Binding affinity: 31 Ru for the first, 43 Ru for the second.

Compared with 6mer-2-1060 (KTNERK), 6mer-2-1052 (KAPARK) is lower in Binding affinity: 35 Ru for the first, 23 Ru for the second.

First: 6mer-2-1159 (KDMGKR)
Second: 6mer-2-1147 (KFMKKK)
The Binding affinity of the first is higher: 40 Ru for the first, 35 Ru for the second.

First: 6mer-2-1100 (RTAPKK)
Second: 6mer-2-1076 (RYCIRR)
The Binding affinity of the first is lower: 24 Ru for the first, 34 Ru for the second.

Same assay, conditions: SPR, peptides tested at 10 μM; 5mer Top sequence

First: 5mer-360 (RQLCK)
Second: 5mer-312 (KRYCR)
The Binding affinity of the first is lower: 66 Ru for the first, 81 Ru for the second.

Compared with 5mer-320 (RVVQR), 5mer-419 (RVYTR) is lower in Binding affinity: 75 Ru for the first, 67 Ru for the second.

Compared with 5mer-71 (KLQSK), 5mer-325 (KRIQR) is lower in Binding affinity: 68 Ru for the first, 50 Ru for the second.

First: 5mer-448 (RQIRK)
Second: 5mer-63 (RLLRK)
The Binding affinity of the first is lower: 74 Ru for the first, 86 Ru for the second.

Compared with 5mer-74 (RQITK), 5mer-309 (KVQYR) is lower in Binding affinity: 87 Ru for the first, 70 Ru for the second.

Compared with 5mer-443 (RGFTK), 5mer-58 (KWVSK) is lower in Binding affinity: 80 Ru for the first, 75 Ru for the second.

Compared with 5mer-368 (KRIRR), 5mer-13 (RLISK) is higher in Binding affinity: 50 Ru for the first, 52 Ru for the second.

Compared with 5mer-308 (RLRCR), 5mer-487 (RLVTK) is lower in Binding affinity: 84 Ru for the first, 62 Ru for the second.

Going from 5mer-45 (RVFQR) to 5mer-137 (KGVSK), the Binding affinity falls from 86 Ru to 77 Ru.

Same assay, conditions: SPR, peptides tested at 10 μM; 5mer Top sequence (top combinations)

Compared with 5mer-274 (RQVRK), 5mer-529 (RVQSR) is higher in Binding affinity: 62 Ru for the first, 84 Ru for the second.

First: 5mer-240 (KWRYR)
Second: 5mer-253 (RSLYR)
The Binding affinity of the first is lower: 51 Ru for the first, 75 Ru for the second.

For 5mer-558 (RWRYK), the Binding affinity was 84 Ru.

Same assay, conditions: SPR, peptides tested at 10 μM; 6mer-1 Bottom sequence (Table 11)

Going from 6mer-1-868 (KKHHAR) to 6mer-1-823 (KRHTGK), the Binding affinity falls from 14 Ru to 12 Ru.

First: 6mer-1-963 (RREEDK)
Second: 6mer-1-959 (KKIWFR)
The Binding affinity of the first is lower: 29 Ru for the first, 36 Ru for the second.

Going from 6mer-1-902 (RRDKMK) to 6mer-1-811 (KRHCHK), the Binding affinity falls from 39 Ru to 16 Ru.

Same assay, conditions: SPR, peptides tested at 10 μM; 6mer-1 Top sequence

Going from 6mer-1-511 (RKVYRR) to 6mer-1-587 (KKQLLK), the Binding affinity rises from 136 Ru to 148 Ru.

Going from 6mer-1-414 (KRSFLR) to 6mer-1-524 (KKGRQK), the Binding affinity falls from 153 Ru to 148 Ru.

Going from 6mer-1-491 (RKLRLR) to 6mer-1-536 (RRWFRK), the Binding affinity rises from 137 Ru to 151 Ru.

With 6mer-1-459 (RRWVYK) the Binding affinity was 131 Ru.

Same assay, conditions: SPR, peptides tested at 10 μM; 6mer-1 Top sequence (top combinations)

Going from 6mer-1-22 (RKRLCK) to 6mer-1-90 (KKGISK), the Binding affinity falls from 126 Ru to 125 Ru.

Going from 6mer-1-154 (KKLYSR) to 6mer-1-104 (KRGFSK), the Binding affinity falls from 153 Ru to 121 Ru.

First: 6mer-1-100 (RKWISK)
Second: 6mer-1-140 (KRQVQR)
The Binding affinity of the first is lower: 146 Ru for the first, 148 Ru for the second.

Compared with 6mer-1-77 (KKQLRR), 6mer-1-71 (KRWFYK) is lower in Binding affinity: 149 Ru for the first, 121 Ru for the second.

First: 6mer-1-159 (KRLRRK)
Second: 6mer-1-69 (RKVRRR)
The Binding affinity of the first is lower: 139 Ru for the first, 142 Ru for the second.

6mer-1-61 (KRSYCK) was tested, and the Binding affinity was 121 Ru.

Same assay, conditions: SPR; XRRGVRR-7mer and RRGVRRX-7mer

For 3676 (RRGVRRK) [compound 3676], the “Binding affinity, values relative to the RRGVRR sequence” value was 171.

Same assay, conditions: SPR; XRRQRR-6mer and RRQRRX-6mer

For 3619 (DRRQRR) [compound 3619], the “Binding affinity, relative value to the RRQRR sequence” value was 163.

Same assay, conditions: SPR; peptides tested at 10 μM; 5mer Bottom sequence

Going from 5mer-859 (KHNAR) to 5mer-1123 (KYEKR), the Binding affinity falls from 26 Ru to 24 Ru.

Going from 5mer-898 (RYCMR) to 5mer-1146 (KPHGR), the Binding affinity rises from 20 Ru to 23 Ru.

5mer-824 (KIDMK) gave a Binding affinity of 13 Ru.
